The values that follow come from paper PMC11696677 (Communications Biology, 2025).

B2: Kapβ2_(W460A:W730A) (receptor, human, UniProt Q92973-2 1-890, looked up)
chain: MEYEWKPDEQGLQQILQLLKESQSPDTTIQRTVQQKLEQLNQYPDFNNYLIFVLTKLKSEDEPTRSLSGLILKNNVKAHFQNFPNGVTDFIKSECLNNIGDSSPLIRATVGILITTIASKGELQNWPDLLPKLCSLLDSEDYNTCEGAFGALQKICEDSAEILDSDVLDRPLNIMIPKFLQFFKHSSPKIRSHAVACVNQFIISRTQALMLHIDSFIENLFALAGDEEPEVRKNVCRALVMLLEVRMDRLLPHMHNIVEYMLQRTQDQDENVALEACEFWLTLAEQPICKDVLVRHLPKLIPVLVNGMKYSDIDIILLKGDVEEDETIPDSEQDIRPRFHRSRTVAQQHDEDGIEEEDDDDDEIDDDDTISDWNLRKCSAAALDVLANVYRDELLPHILPLLKELLFHHEWVVKESGILVLGAIAEGCMQGMIPYLPELIPHLIQCLSDKKALVRSITCATLSRYAHWVVSQPPDTYLKPLMTELLKRILDSNKRVQEAACSAFATLEEEACTELVPYLAYILDTLVFAFSKYQHKNLLILYDAIGTLADSVGHHLNKPEYIQMLMPPLIQKWNMLKDEDKDLFPLLECLSSVATALQSGFLPYCEPVYQRCVNLVQKTLAQAMLNNAQPDQYEAPDKDFMIVALDLLSGLAEGLGGNIEQLVARSNILTLMYQCMQDKMPEVRQSSFALLGDLTKACFQHVKPCIADFMPILGTNLNPEFISVCNNATAAIGEISIQMGIEMQPYIPMVLHQLVEIINRPNTPKTLLENTAITIGRLGYVCPQEVAPMLQQFIRPWCTSLRNIRDNEEKDSAFRGICTMISVNPSGVIQDFIFFCDAVASWINPKDDLRDMFCKILHGFKNQVGDENWRRFSDQFPLPLKERLAAFYGV

Where two headings read alike, the source gives them in different places.

Common to all, as to experiment: fluorescence polarisation
For orientation: Polarisation of emitted light reports the rotation of a fluorescent probe.

Assay [1] concerns the target B2.
Assay [2] has as its target T1, WT Kapβ2 (human, UniProt Q92973-2 1-890).
T1 sequence (looked up): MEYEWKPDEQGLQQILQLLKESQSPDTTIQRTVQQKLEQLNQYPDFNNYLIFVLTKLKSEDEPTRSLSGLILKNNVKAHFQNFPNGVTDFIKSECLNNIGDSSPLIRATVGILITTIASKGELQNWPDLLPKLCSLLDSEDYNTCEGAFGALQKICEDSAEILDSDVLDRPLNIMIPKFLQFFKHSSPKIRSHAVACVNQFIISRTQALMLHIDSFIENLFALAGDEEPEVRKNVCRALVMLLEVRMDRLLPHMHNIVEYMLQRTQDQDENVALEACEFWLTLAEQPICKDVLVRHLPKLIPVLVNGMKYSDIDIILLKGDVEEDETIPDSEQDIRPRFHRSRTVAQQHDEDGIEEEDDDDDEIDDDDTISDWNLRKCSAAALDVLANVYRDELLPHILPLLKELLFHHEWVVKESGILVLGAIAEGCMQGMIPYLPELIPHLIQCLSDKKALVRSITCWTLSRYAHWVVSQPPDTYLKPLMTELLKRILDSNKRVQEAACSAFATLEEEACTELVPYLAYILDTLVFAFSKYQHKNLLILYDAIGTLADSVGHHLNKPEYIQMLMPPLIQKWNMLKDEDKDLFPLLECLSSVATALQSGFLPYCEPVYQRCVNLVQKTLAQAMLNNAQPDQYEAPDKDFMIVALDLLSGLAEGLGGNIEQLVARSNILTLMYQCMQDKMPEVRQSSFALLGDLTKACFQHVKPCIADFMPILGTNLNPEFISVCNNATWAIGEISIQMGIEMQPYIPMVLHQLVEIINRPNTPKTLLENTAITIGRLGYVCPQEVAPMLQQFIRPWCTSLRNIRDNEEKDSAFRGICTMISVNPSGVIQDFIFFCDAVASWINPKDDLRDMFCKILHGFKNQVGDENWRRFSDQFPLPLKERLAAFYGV

Assay [3] concerns the target T2, TAMRA-(PR)20 (TAMRA label (position not given)).
T2 peptide: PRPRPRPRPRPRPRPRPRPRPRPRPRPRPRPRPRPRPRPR

Assay [4] concerns the target T3, TAMRA-(GR)20 (TAMRA label (position not given)).
T3 peptide: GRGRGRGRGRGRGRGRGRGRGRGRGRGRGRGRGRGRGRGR

For assay [5], the target named is T2, TAMRA-(PR)20.
Assay [6] concerns the target T3, TAMRA-(GR)20.

B1: FUS-GFP (natural protein, UniProt P35637 1-526, looked up)
chain: MASNDYTQQATQSYGAYPTQPGQGYSQQSSQPYGQQSYSGYSQSTDTSGYGQSSYSSYGQSQNTGYGTQSTPQGYGSTGGYGSSQSSQSSYGQQSSYPGYGQQPAPSSTSGSYGSSSQSSSYGQPQSGSYSQQPSYGGQQQSYGQQQSYNPPQGYGQQNQYNSSSGGGGGGGGGGNYGQDQSSMSSGGGSGGGYGNQDQSGGGGSGGYGQQDRGGRGRGGSGGGGGGGGGGYNRSSGGYEPRGRGGGRGGRGGMGGSDRGGFNKFGGPRDQGSRHDSEQDNSDNNTIFVQGLGENVTIESVADYFKQIGIIKTNKKTGQPMINLYTDRETGKLKGEATVSFDDPPSAKAAIDWFDGKEFSGNPIKVSFATRRADFNRGGGNGRGGRGRGGPMGRGGYGGGGSGGGGRGGFPSGGGGGGGQQRAGDWKCPNPTCENMNFSWRNECNQCKAPKPDGPGGGPGGSHMGGNYGDDRRGGRGGYDRGGYRGRGGDRGGFRGGRGGGDRGGFGPGKMDSRGEHRQDRRERPY
The term Kd denotes the constant that tells how readily two partners part at equilibrium. Read a high Kd as lower affinity. As to B1, the Kd in assay [1] turned out to be 124 ± 58.5 nM; in assay [2], 39.6 ± 17.7 nM.

In the case of B2, the “affinity relative to that of FUS for Kapβ2_(W460A:W730A)” value in assay [3] was around 1.5 times; in assay [4], around 1.5 times; in assay [5], around 3 times; in assay [6], around 3 times.
